{
  "source": "paper PMC2686087",
  "key": {"[1]": {"target": "CaV2.2/α2δ-2 calcium channel coexpressed with wild-type β2a (UniProt Q05152)"}, "[2]": {"target": "CaV2.2/α2δ-2 calcium channel coexpressed with wild-type β2a (UniProt Q05152)", "remark": "listed apart in the source"}, "[3]": {"target": "CaV2.2/α2δ-2 calcium channel coexpressed with β2a-ΔvHOOK (UniProt Q05152)"}, "[4]": {"target": "CaV2.2/α2δ-2 calcium channel coexpressed with β2a-SH3 (1–135) and β2a-GK (226–442) (UniProt Q05152)"}},
  "data": [
    {"substance": "Gβγ (from UniProt P62873 1-340; P59768 1-71) (complex)", "values": [
      {"measurement": "basal facilitation (P2/P1) ratio at +10 mV without agonist", "setting": "[1]", "value": 1.43},
      {"measurement": "dissociation rate of Gβγ at +120 mV (from τdissoc)", "setting": "[2]", "value": 46.9, "unit": "s⁻¹"},
      {"measurement": "time constant for rebinding of Gβγ at −100 mV (reinhibition after the prepulse)", "setting": "[2]", "value": 248, "unit": "ms"},
      {"measurement": "dissociation rate of Gβγ at +120 mV (from τdissoc)", "setting": "[3]", "value": 29.7, "unit": "s⁻¹"},
      {"measurement": "time constant for rebinding of Gβγ at −100 mV (reinhibition after the prepulse)", "setting": "[3]", "value": 296, "unit": "ms"},
      {"measurement": "basal facilitation (P2/P1) of peak IBa at +10 mV in the absence of agonist", "setting": "[4]", "value": 2.61},
      {"measurement": "time constant for the removal of tonic inhibition (τdissoc) at +120 mV", "setting": "[4]", "value": 29.1, "unit": "ms"}
    ]}
  ]
}
